Laboratory results from patent publication US20230174626A1.

How the values were obtained:
[1] = biological target: HCMV Pentamer protein complex (gH/gL/UL128/UL130/UL131A) (Human Cytomegalovirus (HCMV)); assay: SPR Biacore 8K+, single-cycle kinetics, IgG captured on Protein A chip, Pentamer as analyte, 1:1 fit
[2] = biological target: HCMV gH/gL/gO protein complex (Human Cytomegalovirus (HCMV)); assay: SPR Biacore 8K+, single-cycle kinetics, IgG captured on Protein A chip, gH/gL/gO as analyte, 1:1 fit

Sequence of HCMV Pentamer protein complex (gH/gL/UL128/UL130/UL131A) (Human Cytomegalovirus (HCMV)) (Q6SW67 24-719, chain 1 of 4): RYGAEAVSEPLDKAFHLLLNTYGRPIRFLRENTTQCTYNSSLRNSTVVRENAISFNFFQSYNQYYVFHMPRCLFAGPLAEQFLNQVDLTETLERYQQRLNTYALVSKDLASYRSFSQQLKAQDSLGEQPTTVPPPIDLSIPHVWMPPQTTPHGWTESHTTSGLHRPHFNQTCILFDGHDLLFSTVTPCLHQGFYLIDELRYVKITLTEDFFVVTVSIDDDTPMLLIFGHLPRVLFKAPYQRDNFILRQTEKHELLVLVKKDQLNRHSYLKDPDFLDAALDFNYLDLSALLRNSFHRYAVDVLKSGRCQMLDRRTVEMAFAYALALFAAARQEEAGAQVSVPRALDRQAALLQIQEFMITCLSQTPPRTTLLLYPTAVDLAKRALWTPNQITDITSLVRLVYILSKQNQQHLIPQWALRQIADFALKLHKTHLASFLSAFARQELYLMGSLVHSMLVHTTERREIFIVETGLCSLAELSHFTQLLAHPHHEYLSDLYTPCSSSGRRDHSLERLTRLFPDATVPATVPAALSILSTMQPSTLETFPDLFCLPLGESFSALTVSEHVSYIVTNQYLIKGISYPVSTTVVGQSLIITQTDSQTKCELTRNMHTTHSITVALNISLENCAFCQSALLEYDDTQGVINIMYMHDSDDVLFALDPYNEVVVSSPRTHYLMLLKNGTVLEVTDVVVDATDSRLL
Sequence of HCMV Pentamer protein complex (gH/gL/UL128/UL130/UL131A) (Human Cytomegalovirus (HCMV)) (F5HCH8 31-278, chain 2 of 4, further chain): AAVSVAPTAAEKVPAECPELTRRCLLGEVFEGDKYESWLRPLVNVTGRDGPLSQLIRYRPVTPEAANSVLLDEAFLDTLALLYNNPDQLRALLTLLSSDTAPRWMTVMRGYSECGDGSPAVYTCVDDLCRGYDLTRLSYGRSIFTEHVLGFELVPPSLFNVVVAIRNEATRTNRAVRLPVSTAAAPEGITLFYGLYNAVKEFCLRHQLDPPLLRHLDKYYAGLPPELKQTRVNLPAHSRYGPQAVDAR
Sequence of HCMV Pentamer protein complex (gH/gL/UL128/UL130/UL131A) (Human Cytomegalovirus (HCMV)) (P16837 28-171, chain 3 of 4, further chain): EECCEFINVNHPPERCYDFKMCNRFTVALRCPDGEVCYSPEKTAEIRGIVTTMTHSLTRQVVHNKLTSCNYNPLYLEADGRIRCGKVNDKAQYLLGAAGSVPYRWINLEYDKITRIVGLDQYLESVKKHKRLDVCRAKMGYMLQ
Sequence of HCMV Pentamer protein complex (gH/gL/UL128/UL130/UL131A) (Human Cytomegalovirus (HCMV)) (F5HCP3 26-214, chain 4 of 4, further chain): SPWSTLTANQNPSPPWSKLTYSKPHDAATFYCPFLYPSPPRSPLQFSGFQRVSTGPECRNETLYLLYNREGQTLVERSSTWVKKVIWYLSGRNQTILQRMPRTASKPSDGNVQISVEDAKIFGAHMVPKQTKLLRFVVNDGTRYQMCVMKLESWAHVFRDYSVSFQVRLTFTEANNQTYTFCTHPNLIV

Row | Binder | Kd [1] | koff [1] | kon [1] | Kd [2] | koff [2] | kon [2]
1 | humanized 2C7 mAb (antibody, human IgG1, kappa, V domains shown) VH: EVQLQQSGPELEKPGASVKISCKASGYSFTGYNMNWVKQSNGKSLEWIGNIDPYFGGTSYNQKFKGKATLTVDKSSSTAYMELKSLTSEDSAVYYCARHYGYFPWFAYWGQGTLVTVSA VL: DIVLTQSPASLAVSLGQRATISCRASESVDSSGNSFMHWYQQKPGQPPKLLIYRASNLESGIPARFSGSGSRTDFTLTINPVGADDVATYYCQQSNEDPWTFGGGTKLEIKR | 0.721 nM | 0.000322 s⁻¹ | 447000 M⁻¹ s⁻¹ | 1 nM | 0.000416 s⁻¹ | 415000 M⁻¹ s⁻¹
2 | humanized 26B6 mAb (antibody, human IgG1, kappa, V domains shown) VH: EVQLVESGGGLVKPGGSLKLSCAASGFTITDYYIYWLRQTPEKKLEWVAAISDGGRYTDYPDSVKGRFTMSSDNAKTNLYLQMGSLQSDDTGMYYCARWASYGYHWYFDVWGAGTTVTVSS VL: DIQMTQTTSSLSASLGDRVTISCSASQDISNYINWYQQKRDGTVKLLIYDSSSLHSGVPSRFSGSGSGTDYSLTISNLEPEDFATYFCQQYSNLPPTFGGGTNLEIKR | 0.123 nM | 5.3e-05 s⁻¹ | 432000 M⁻¹ s⁻¹ | – | – | –
3 | humanized 23C2 mAb (antibody, human IgG1, kappa, V domains shown) VH: DVQLQESGPGLVKPSQSLSLTCSVTGYSIKSGYYWNWIRQFPGNKLEWMGYISYGGDFTYNPSLKNRISITRDTSKNQFFLKLNSVTTEDTATYFCVREPNWESYFDIWGAGTTVTVSS VL: DIQMTQSPASLSASVGETVTITCRASDNIYSYLTWYHQKQGKSPHLLVYNAKTLPEGVPLRFSGTGSGTQFSLKINSLQPEDFGIYFCLHDYGFPRTFGGGTILEVKR | 1.03 nM | 0.000285 s⁻¹ | 275000 M⁻¹ s⁻¹ | – | – | –
